Results taken from patent US20090252741A1.

Target: human CTLA-4Ig fusion protein (extracellular domain of human CTLA-4 and the Fc fragment of human IgG1) (human) (UniProt P16410)
Experiment: Biacore SPR, huCTLA-4Ig immobilized by amine coupling, mAb injected, 25 C

Chain of UniProt P16410 (P16410 36-161): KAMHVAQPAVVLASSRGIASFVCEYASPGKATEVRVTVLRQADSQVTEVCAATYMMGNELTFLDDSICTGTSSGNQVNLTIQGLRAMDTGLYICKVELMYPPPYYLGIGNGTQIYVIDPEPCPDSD

Kd: 3.06 nM
koff: 0.000633 s⁻¹
kon: 207000 M⁻¹ s⁻¹
B1: anti-human CTLA-4 mAb clone L3D10 (antibody, from another filing, V domains shown)
VH: QVQLKESGPGLVAPSQSLSITCTVSGFSLTSYGLSWVRQPPGKGLEWLGVIWYDGNTNFHSALISRLTISKDNSKSQVFLELNSLQTDDTATYYCAKTEGHYYGSNYGYYALDYWGQGTSVTVSS
VL: DIQMTQSPASLSVSVGETVTITCRASENIYSNLAWYQQKQGKSPQLLVYAATNLADGVPSRFSGSGSGTQYSLKINSLQSEDFGTYFCQHLWGTPYTFGGGTKLEIKR
